Measurements from PMC11702068, “NEK8 promotes the progression of gastric cancer by reprogramming asparagine metabolism” (Molecular Medicine, 2025).

B1: Flag-ASNS (wild type) [not stated] / NEK8 (partner in the co-immunoprecipitation with ASNS-WT and ASNS-S349A) [not stated] (parent)
chain 1: MCGIWALFGSDDCLSVQCLSAMKIAHRGPDAFRFENVNGYTNCCFGFHRLAVVDPLFGMQPIRVKKYPYLWLCYNGEIYNHKKMQQHFEFEYQTKVDGEIILHLYDKGGIEQTICMLDGVFAFVLLDTANKKVFLGRDTYGVRPLFKAMTEDGFLAVCSEAKGLVTLKHSATPFLKVEPFLPGHYEVLDLKPNGKVASVEMVKYHHCRDVPLHALYDNVEKLFPGFEIETVKNNLRILFNNAVKKRLMTDRRIGCLLSGGLDSSLVAATLLKQLKEAQVQYPLQTFAIGMEDSPDLLAARKVADHIGSEHYEVLFNSEEGIQALDEVIFSLETYDITTVRASVGMYLISKYIRKNTDSVVIFSGEGSDELTQGYIYFHKAPSPEKAEEESERLLRELYLFDVLRADRTTAAHGLELRVPFLDHRFSSYYLSLPPEMRIPKNGIEKHLLRETFEDSNLIPKEILWRPKEAFSDGITSVKNSWFKILQEYVEHQVDDAMMANAAQKFPFNTPKTKEGYYYRQVFERHYPGRADWLSHYWMPKWINATDPSARTLTHYKSAVKA
chain 2: MEKYERIRVVGRGAFGIVHLCLRKADQKLVIIKQIPVEQMTKEERQAAQNECQVLKLLNHPNVIEYYENFLEDKALMIAMEYAPGGTLAEFIQKRCNSLLEEETILHFFVQILLALHHVHTHLILHRDLKTQNILLDKHRMVVKIGDFGISKILSSKSKAYTVVGTPCYISPELCEGKPYNQKSDIWALGCVLYELASLKRAFEAANLPALVLKIMSGTFAPISDRYSPELRQLVLSLLSLEPAQRPPLSHIMAQPLCIRALLNLHTDVGSVRMRRAEKSVAPSNTGSRTTSVRCRGIPRGPVRPAIPPPLSSVYAWGGGLGTPLRLPMLNTEVVQVAAGRTQKAGVTRSGRLILWEAPPLGAGGGSLLPGAVEQPQPQFISRFLEGQSGVTIKHVACGDFFTACLTDRGIIMTFGSGSNGCLGHGSLTDISQPTIVEALLGYEMVQVACGASHVLALSTERELFAWGRGDSGRLGLGTRESHSCPQQVPMPPGQEAQRVVCGIDSSMILTVPGQALACGSNRFNKLGLDHLSLGEEPVPHQQVEEALSFTLLGSAPLDQEPLLSIDLGTAHSAAVTASGDCYTFGSNQHGQLGTNTRRGSRAPCKVQGLEGIKMAMVACGDAFTVAIGAESEVYSWGKGARGRLGRRDEDAGLPRPVQLDETHPYTVTSVSCCHGNTLLAVRSVTDEPVPP

Variants of: B1
Assay: co-immunoprecipitation (IP: ASNS, IB: NEK8), band intensity quantified
Settings: parent: 4.9, read off a plot

| response | Variant |
| --- | --- |
| 3.1 | chain 1 S349A |

Variants of: B1
Assay: co-immunoprecipitation (IP: Flag-ASNS, IB: NEK8), band intensity quantified
Settings: parent: 5.4, read off a plot

| response | Variant |
| --- | --- |
| 2.7 | chain 1 S349A |
